Laboratory results as given in the supplement of paper PMC5998384.

How the values were obtained:
[1] = system: HeLa Kyoto; experiment: solubility change mitosis vs G1/S (difference of NP-40 vs SDS log2 ratios) (log2 ratio difference); higher = more soluble in mitosis
[2] = system: HeLa Kyoto; experiment: solubility in G1/S (NP-40 vs SDS abundance) (log2 ratio); higher = more soluble; conditions: cell cycle stage: G1/S
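Wherever solubility change mitosis vs G1/S (difference of NP-40 vs SDS log2 ratios) is given: synchronized HeLa Kyoto cells (double thymidine block for G1/S, nocodazole release for mitosis), protein amounts in NP-40 versus SDS lysates quantified by mass spectrometry, three biological replicates.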
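Wherever solubility in G1/S (NP-40 vs SDS abundance) is given: HeLa Kyoto cells arrested at G1/S by double thymidine block, proteins quantified by TMT10plex mass spectrometry in mild NP-40 versus SDS extracts, three biological replicates.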

| Sequence | solubility change mitosis (log2) [1] | solubility in G1/S (log2) [2] |
| --- | --- | --- |
| MELGKGKLLRTGLNALHQAVHPIHGLAWTDGNQVVLTDLRLHSGEVKFGDSKVIGQFECVCGLSWAPPVADDTPVLLAVQHEKHVTVWQLCPSPMESSKWLTSQTCEIRGSLPILPQGCVWHPKCAILTVLTAQDVSIFPNVHSDDSQVKADINTQGRIHCACWTQDGLRLVVAVGSSLHSYIWDSAQKTLHRCSSCLVFDVDSHVCSITATVDSQVAIATELPLDKICGLNASETFNIPPNSKDMTPYALPVIGEVRSMDKEATDSETNSEVSVSSSYLEPLDLTHIHFNQHKSEGNSLICLRKKDYLTGTGQDSSHLVLVTFKKAVTMTRKVTIPGILVPDLIAFNLKAHVVAVASNTCNIILIYSVIPSSVPNIQQIRLENTERPKGICFLTDQLLLILVGKQKLTDTTFLPSSKSDQYAISLIVREIMLEEEPSITSGESQTTYSTFSAPLNKANRKKLIESLSPDFCHQNKGLLLTVNTSSQNGRPGRTLIKEIQSPLSSICDGSIALDAEPVTQPASLPRHSSTPDHTSTLEPPRLPQRKNLQSEKETYQLSKEVEILSRNLVEMQRCLSELTNRLHNGKKSSSVYPLSQDLPYVHIIYQKPYYLGPVVEKRAVLLCDGKLRLSTVQQTFGLSLIEMLHDSHWILLSADSEGFIPLTFTATQEIIIRDGSLSRSDVFRDSFSHSPGAVSSLKVFTGLAAPSLDTTGCCNHVDGMA [C2ORF44] | -0.0919 | -0.00732 |
| MENELPVPHTSSSACATSSTSGASSSSGCNNSSSGGSGRPTGPQISVYSGIPDRQTVQVIQQALHRQPSTAAQYLQQMYAAQQQHLMLQTAALQQQHLSSAQLQSLAAVQQASLVSNRQGSTSGSNVSAQAPAQSSSINLAASPAAAQLLNRAQSVNSAAASGIAQQAVLLGNTSSPALTASQAQMYLRAQMLIFTPTATVATVQPELGTGSPARPPTPAQVQNLTLRTQQTPAAAASGPTPTQPVLPSLALKPTPGGSQPLPTPAQSRNTAQASPAGAKPGIADSVMEPHKKGDGNSSVPGSMEGRAGLSRTVPAVAAHPLIAPAYAQLQPHQLLPQPSSKHLQPQFVIQQQPQPQQQQPPPQQSRPVLQAEPHPQLASVSPSVALQPSSEAHAMPLGPVTPALPLQCPTANLHKPGGSQQCHPPTPDTGPQNGHPEGVPHTPQRRFQHTSAVILQLQPASPPQQCVPDDWKEVAPGEKSVPETRSGPSPHQQAIVTAMPGGLPVPTSPNIQPSPAHETGQGIVHALTDLSSPGMTSGNGNSASSIAGTAPQNGENKPPQAIVKPQILTHVIEGFVIQEGAEPFPVGRSSLLVGNLKKKYAQGFLPEKLPQQDHTTTTDSEMEEPYLQESKEEGAPLKLKCELCGRVDFAYKFKRSKRFCSMACAKRYNVGCTKRVGLFHSDRSKLQKAGAATHNRRRASKASLPPLTKDTKKQPTGTVPLSVTAALQLTHSQEDSSRCSDNSSYEEPLSPISASSSTSRRRQGQRDLELPDMHMRDLVGMGHHFLPSEPTKWNVEDVYEFIRSLPGCQEIAEEFRAQEIDGQALLLLKEDHLMSAMNIKLGPALKIYARISMLKDS [PHC2] | 0.555 | -0.368 |
| MEPLKVEKFATAKRGNGLRAVTPLRPGELLFRSDPLAYTVCKGSRGVVCDRCLLGKEKLMRCSQCRVAKYCSAKCQKKAWPDHKRECKCLKSCKPRYPPDSVRLLGRVVFKLMDGAPSESEKLYSFYDLESNINKLTEDKKEGLRQLVMTFQHFMREEIQDASQLPPAFDLFEAFAKVICNSFTICNAEMQEVGVGLYPSISLLNHSCDPNCSIVFNGPHLLLRAVRDIEVGEELTICYLDMLMTSEERRKQLRDQYCFECDCFRCQTQDKDADMLTGDEQVWKEVQESLKKIEELKAHWKWEQVLAMCQAIISSNSERLPDINIYQLKVLDCAMDACINLGLLEEALFYGTRTMEPYRIFFPGSHPVRGVQVMKVGKLQLHQGMFPQAMKNLRLAFDIMRVTHGREHSLIEDLILLLEECDANIRAS [SMYD3] | -0.167 | -0.0441 |
| MEPRAAAAGEPEPPAASSSFQARLWKNLQLGVGRSKGGGGGRAGGPERRTADTPSPSPPPPVGTGNAPARGSGAGSRWSGFKKRKQVLDRVFSSSQPNLCCSSPEPLEPGGAGRAEQGSTLRRRIREHLLPAVKGPAAASGAAGGTPPGGRSPDSAPSSSSASSSLSSSPQPPPRGDRARDEGARRQGPGAHLCHQKSSSLPGTACLEQLLEPPPPPAEPARSPAESRAPETGEEHGSSQKIINTAGTSNAEVPLADPGMYQLDITLRRGQSLAARDRGGTSDPYVKFKIGGKEVFRSKIIHKNLNPVWEEKACILVDHLREPLYIKVFDYDFGLQDDFMGSAFLDLTQLELNRPTDVTLTLKDPHYPDHDLGIILLSVILTPKEGESRDVTMLMRKSWKRSSKELSENEVVGSYFSVKSLFWRTCGRPALPVLGFCRAELQNPYCKNVQFQTQSLRLSDLHRKSHLWRGIVSITLIEGRDLKAMDSNGLSDPYVKFRLGHQKYKSKIMPKTLNPQWREQFDFHLYEERGGVIDITAWDKDAGKRDDFIGRCQVDLSALSREQTHKLELQLEEGEGHLVLLVTLTASATVSISDLSVNSLEDQKEREEILKRYSPLRIFHNLKDVGFLQVKVIRAEGLMAADVTGKSDPFCVVELNNDRLLTHTVYKNLNPEWNKVFTFNIKDIHSVLEVTVYDEDRDRSADFLGKVAIPLLSIQNGEQKAYVLKNKQLTGPTKGVIYLEIDVIFNAVKASLRTLIPKEQKYIEEENRLSKQLLLRNFIRMKRCVMVLVNAAYYVNSCFDWDSPPRSLAAFVLFLFVVWNFELYMIPLVLLLLLTWNYFLIISGKDNRQRDTVVEDMLEDEEEEDDKDDKDSEKKGFINKIYAIQEVCVSVQNILDEVASFGERIKNTFNWTVPFLSWLAIVALCVFTAILYCIPLRYIVLVWGINKFTKKLRSPYAIDNNELLDFLSRVPSDVQVVQYQELKPDPSHSPYKRKKNNLG [MCTP1] | -0.196 | 0.0529 |
| MEPRRAAPGVPGWGSREAAGSASAAELVYHLAGALGTELQDLARRFGPEAAAGLVPLVVRALELLEQAAVGPAPDSLQVSAQPAEQELRRLREENERLRRELRAGPQEERALLRQLKEVTDRQRDELRAHNRDLRQRGQETEALQEQLQRLLLVNAELRHKLAAMQTQLRAAQDRERERQQPGEAATPQAKERARGQAGRPGHQHGQEPEWATAGAGAPGNPEDPAEAAQQLGRPSEAGQCRFSREEFEQILQERNELKAKVFLLKEELAYFQRELLTDHRVPGLLLEAMKVAVRKQRKKIKAKMLGTPEEAESSEDEAGPWILLSDDKGDHPPPPESKIQSFFGLWYRGKAESSEDETSSPAPSKLGGEEEAQPQSPAPDPPCSALHEHLCLGASAAPEA [RILP] | 0.11 | 0.551 |
| MEQRRVTDFFARRRPGPPRIAPPKLACRTPSPARPALRAPASATSGSRKRARPPAAPGRDQARPPARRRLRLSVDEVSSPSTPEAPDIPACPSPGQKIKKSTPAAGQPPHLTSAQDQDTISELASCLQRARELGARVRALKASAQDAGESCTPEAEGRPEEPCGEKAPAYQRFHALAQPGLPGLVLPYKYQVLAEMFRSMDTIVGMLHNRSETPTFAKVQRGVQDMMRRRFEECNVGQIKTVYPASYRFRQERSVPTFKDGTRRSDYQLTIEPLLEQEADGAAPQLTASRLLQRRQIFSQKLVEHVKEHHKAFLASLSPAMVVPEDQLTRWHPRFNVDEVPDIEPAALPQPPATEKLTTAQEVLARARNLISPRMEKALSQLALRSAAPSSPGSPRPALPATPPATPPAASPSALKGVSQDLLERIRAKEAQKQLAQMTRCPEQEQRLQRLERLPELARVLRSVFVSERKPALSMEVACARMVGSCCTIMSPGEMEKHLLLLSELLPDWLSLHRIRTDTYVKLDKAADLAHITARLAHQTRAEEGL [CDT1] | 0.575 | 0.0981 |
| MERPSLRALLLGAAGLLLLLLPLSSSSSSDTCGPCEPASCPPLPPLGCLLGETRDACGCCPMCARGEGEPCGGGGAGRGYCAPGMECVKSRKRRKGKAGAAAGGPGVSGVCVCKSRYPVCGSDGTTYPSGCQLRAASQRAESRGEKAITQVSKGTCEQGPSIVTPPKDIWNVTGAQVYLSCEVIGIPTPVLIWNKVKRGHYGVQRTELLPGDRDNLAIQTRGGPEKHEVTGWVLVSPLSKEDAGEYECHASNSQGQASASAKITVVDALHEIPVKKGEGAEL [IGFBP7] | 0.407 | 0.0794 |
| MESETEPEPVTLLVKSPNQRHRDLELSGDRGWSVGHLKAHLSRVYPERPRPEDQRLIYSGKLLLDHQCLRDLLPKQEKRHVLHLVCNVKSPSKMPEINAKVAESTEEPAGSNRGQYPEDSSSDGLRQREVLRNLSSPGWENISRPEAAQQAFQGLGPGFSGYTPYGWLQLSWFQQIYARQYYMQYLAATAASGAFVPPPSAQEIPVVSAPAPAPIHNQFPAENQPANQNAAPQVVVNPGANQNLRMNAQGGPIVEEDDEINRDWLDWTYSAATFSVFLSILYFYSSLSRFLMVMGATVVMYLHHVGWFPFRPRPVQNFPNDGPPPDVVNQDPNNNLQEGTDPETEDPNHLPPDRDVLDGEQTSPSFMSTAWLVFKTFFASLLPEGPPAIAN [HERPUD1] | -0.0685 | 0.0523 |
| MESKGASSCRLLFCLLISATVFRPGLGWYTVNSAYGDTIIIPCRLDVPQNLMFGKWKYEKPDGSPVFIAFRSSTKKSVQYDDVPEYKDRLNLSENYTLSISNARISDEKRFVCMLVTEDNVFEAPTIVKVFKQPSKPEIVSKALFLETEQLKKLGDCISEDSYPDGNITWYRNGKVLHPLEGAVVIIFKKEMDPVTQLYTMTSTLEYKTTKADIQMPFTCSVTYYGPSGQKTIHSEQAVFDIYYPTEQVTIQVLPPKNAIKEGDNITLKCLGNGNPPPEEFLFYLPGQPEGIRSSNTYTLTDVRRNATGDYKCSLIDKKSMIASTAITVHYLDLSLNPSGEVTRQIGDALPVSCTISASRNATVVWMKDNIRLRSSPSFSSLHYQDAGNYVCETALQEVEGLKKRESLTLIVEGKPQIKMTKKTDPSGLSKTIICHVEGFPKPAIQWTITGSGSVINQTEESPYINGRYYSKIIISPEENVTLTCTAENQLERTVNSLNVSAISIPEHDEADEISDENREKVNDQAKLIVGIVVGLLLAALVAGVVYWLYMKKSKTASKHVNKDLGNMEENKKLEENNHKTEA [ALCAM] | -0.0197 | 0.38 |
| MESRDHNNPQEGPTSSSGRRAAVEDNHLLIKAVQNEDVDLVQQLLEGGANVNFQEEEGGWTPLHNAVQMSREDIVELLLRHGADPVLRKKNGATPFILAAIAGSVKLLKLFLSKGADVNECDFYGFTAFMEAAVYGKVKALKFLYKRGANVNLRRKTKEDQERLRKGGATALMDAAEKGHVEVLKILLDEMGADVNACDNMGRNALIHALLSSDDSDVEAITHLLLDHGADVNVRGERGKTPLILAVEKKHLGLVQRLLEQEHIEINDTDSDGKTALLLAVELKLKKIAELLCKRGASTDCGDLVMTARRNYDHSLVKVLLSHGAKEDFHPPAEDWKPQSSHWGAALKDLHRIYRPMIGKLKFFIDEKYKIADTSEGGIYLGFYEKQEVAVKTFCEGSPRAQREVSCLQSSRENSHLVTFYGSESHRGHLFVCVTLCEQTLEACLDVHRGEDVENEEDEFARNVLSSIFKAVQELHLSCGYTHQDLQPQNILIDSKKAAHLADFDKSIKWAGDPQEVKRDLEDLGRLVLYVVKKGSISFEDLKAQSNEEVVQLSPDEETKDLIHRLFHPGEHVRDCLSDLLGHPFFWTWESRYRTLRNVGNESDIKTRKSESEILRLLQPGPSEHSKSFDKWTTKINECVMKKMNKFYEKRGNFYQNTVGDLLKFIRNLGEHIDEEKHKKMKLKIGDPSLYFQKTFPDLVIYVYTKLQNTEYRKHFPQTHSPNKPQCDGAGGASGLASPGC [RNASEL] | -0.0377 | -0.104 |
